Assay: yeast display, Sf9 membrane polyspecificity reagent, FACS + sequencing; frameworks hold sequencing errors
How it was run: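 Nanobodies came from a synthetic yeast display library in Saccharomyces cerevisiae BJ5465, induced with galactose for 36–48 hours and stained for 1 hour at 4 °C with 10% biotinylated, detergent-solubilized Sf9 membrane reagent. Cells were enriched on streptavidin microbeads and then FACS-sorted, with low and high (top ~1%) gates set on anti-HA fluorescence for expression and streptavidin fluorescence for reagent binding. Each polyreactivity label reflects the gate a clone came from. Genes were amplified by colony PCR, sequenced by MiSeq 2 × 250 and filtered by CDR length.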

Row | Sequence | polyreactivity (PSR sort gate)
1 | QVQLVESGGGLVQAGGSLRLSCAASGIIFAYYDMGLYRKAPGKERELVAAISSTGSNTYYADSVKGRFTISRDNAKNTVYLQMNSLKPEDTAVYYCAAGYAYYIGHGDYWGQGTQVTVSS | high polyreactivity
2 | QVQLVESVGGLDQAGGSLRFICASSAHTISSYAMGWYRQAPGKERELVAAISVSATRTYYADSVKGRFTISRDNAKNTVYLQMSSLNPEDPAVYYFAARPVQFTYGYWGQGTQVTVSS | high polyreactivity
3 | QVQLVESGGGLVQAGCSLRLSCAASGSIFYGYAMGWYRQAPGKERELVARITGSGGDTSYADSVKGRFTISRDNAKNTVYLQMNSLKPEDTAVYYCNTDLYITYTLYTGSEYDYWGQGTQVTVSS | low polyreactivity
4 | QVQLVESGGVLVQAGGSLRLSCAASGLTFSWYAMGWYRQAPGKERELVASINYSGANTYYADSVKGRFTISRDNAQNTVFLQMNSLKPEDTAVYYCNSRLRRYQNERVTYDYWGQGTQVTVSS | high polyreactivity
5 | QVQLVESGGGLVQAGGSLRLSCAASGIFWYNMGWYRPAPGKERELVAAITASGGSRTYYADSVKGRFTISRDNAKNTVYLQMNSLKPEDTAVYYCAASSYSYLYYSWGQGTQVTVSS | high polyreactivity
6 | QVQLVESGGGLVQAGGSLRLSCAASGRTFSAYAMGWYRQAPGKERELVARITSVDSTNYADSVKGRFTISRDNAKNTVYLQMNSLKPEDTAVYYCNATFGYPFVEYDDYWGQGTQVTVSS | low polyreactivity
7 | QVQLVESGGGLVQAGGSLRLSCAASGRTFVWNAMGWYRQAPGKERELVAAISSSGTSTYYADSVKGRFTISRDNAKNTVYLQMNSLKPEDTAVYYCAKDLLYQPTIRDYWGQGTQVTVSS | low polyreactivity
8 | QVQLVESGGGLVQAGGSLRLSCAASGSIISAYAMGWYRQAPGKVREFVASITWSGGSTYYADSVKGRFTISRDNAKNTVYLQMNSLKPEDTAVYDCAAVYVTWYNNYEYWGQGTQVTVSS | high polyreactivity
9 | QVQLVESGGGLVQAGGSLRLSCAASGRIFYTNAMGWYRQAPGKERELVAVISWGGDTTYYADSVKGRFTISRDNAKNTVYLQMNSLKPEDTAVYYCKADWGPTYEIYDSWGQGTQVTVSS | low polyreactivity
10 | QVQLVESGGGLVQAGGSLRYSCAASGSIFYWYAMGWDRQAPGKERELVAGITYSGGNTYYADSVKGRFTISRDNAKNTVYLQMNSLKPEDTAVYDCAATRGYWRKWRMDYWGQGTQVTVSS | high polyreactivity
11 | QVQLVESGGGLVQAGGSLRLSCAASGSTFSGYAMGWDRQAPGNERELVAAITSGGITNYADSVKGRFSLSRDNAKNTVYLQMNSLKPEDTAVYYCAKSVSGIGVGYDYWGQGTQVTVSS | low polyreactivity
12 | QVQLLESGGGLVQAGGSLRLSCAASGIIFGYYAMGWYRQAPGKERELVAAITWSGGSTYYADSVKGRFTISRDNAKNTVYLQMNSLKPEDTAVYYCNADDDGRVSSTIVEYWVQGTQVTVSS | low polyreactivity
13 | QVQLVESGGGLVQAGGSLRLSCAASGFTFVGYAMGWYRQAPGKERELVAAITGRGGTTYYADSVKGRFTISRDNAKNTVYLQMNSLKPEDTAVYYSNADSYITYVQYLYARSWMDYWGQGTQVTVSS | low polyreactivity
14 | QVQLVESGGGIVQAGGSLRLSCAASGFIFYWNAMGRYRQAPGKERELVAGITSGGDTNYADSVKGRFTISRDNAKITVYLQMNSLKPEDTAVYYCAAEGFRGYGYWGQGTQVTVSS | low polyreactivity
15 | QVQLVESGGGLVQAGGSLRLSCAASGFTFVLYAMGWYRQAPGKERELVATITSSGRTNYADSVKGRFTISRDNAKNTVYLQMNSLKPEDTAVYYCAARGGRRYDYWGQGTQVTVSS | high polyreactivity
16 | QVQLVESRRGLVPAGGSLRLSCARCGITVPAYAMGWYRQAPGKERELVASISRRGGSTYYADSVKGRFTISRDNAKNTVYLQINSLKPVDTAVYYCNADIKQRSDRYDYWGQGTQVTVSS | high polyreactivity
17 | QVQLVESGGGLVQAGGSLRLSCADSGRTIYRNGMGWYRKAPGKEREFVAAINYRGGSTNYADSVKWRFTISRDKAKNTVYLQMNSLKPEDTAVYYCATRIFRAALRFDYWGQGTQVTVSS | high polyreactivity
18 | QVQLVESGGGLVQAGGSLRLSCAASGFTFSKYAMGWYRPAPGKERELVAAISGSGGSTYYADSVKGRFTISRDNAKITVYLQMNSLKPEDTAVYYCAADGPGKYDYWGQGTQVTVSS | high polyreactivity
19 | QVQLVESGGGLVQAGGSLRLSCAASGFTFYLYAMGWYRQAPGKERELVASISSGGRTKYADSVKGRFSISRDNAMNTVYLQMNSLKPEDTAVYYCAARGYFTRQFTPYDYWGQGTQVTVSS | high polyreactivity
20 | QVQLVESGGGLVQAGGSLPLSCAASGSTFKQNVMGWYIQAPGKERELVAAITSNDDRTYYADSVKGRFTISRDNAKNTFYLQMNSLKPEDTAVYYCAVESLRDVFEYDYWGQGTQVTVSS | low polyreactivity
21 | QVQLVESGGGLVQAGGSLRLSCAASGRISQGYAMGWYRQAPGKERELVAGISRSGGSTYYADSVKGRFTISRDNAKNTVYLQMNSLKPEDTAVYYCAARVRGRNASDYDYYYWGQGSQVTVSS | high polyreactivity
22 | QVQLVESGGGLVQAGGSLRLSCAASGSTFRIYAKGWYRQAPGKERELVAAITRGARTNYADSVKGRFTISRDNAKNTVYLQMNSLKPEDTAVYYCAADGWRWYQHNGFDYWVQGTQVTVSS | high polyreactivity

Row | Sequence | polyreactivity (PSR sort gate)
23 | QVQLVESGGGLVQAGGSLRLSCAASGSTFDGNAMGWYRQAPGKERELDAAISWNSGSTYYADSVKGRFTISRDNAKNTVYLQMNSLKPEDTAVYYCAATYGTGRRSKYGYWGQGTQVTVSS | high polyreactivity
24 | QVQLVESGGGLVQAGGSLRLSCAASGSIFEKYAMGWYRQAPGKERELVASISKRGGSTNYADSVKGRFTISRDNAKNTVYLQMNSLKPVDTAVYYCAAPANRWSTRWYYDGYDYWGQGTQVTVSS | high polyreactivity
25 | QVKLVESGGRLVQAGGSLRLSCAASGRNFYNYAMGWYRQAPGKERELVAAISKSGGRTYYADSVKGRFTISRDNAKNTVYLQMNSLKPEDTAVYYCAAEPFIPDQSRYYYWGQGSQVTVSS | high polyreactivity
26 | QVQLEESGGGLVQAGGSLRLSCASSGSTFATYAMGWDRQAPGKERELVAGISKRGGRTYYADSLKGRFTISRDNAKNTVYFQMNSLKPEDTAVYYCARYSPYYRVKDYDSWGQGTQVTVSS | high polyreactivity
27 | QVQLVESGGGLVQAGGSLRLSCAASGITFPVYTMGWYRPAPVKERELVAAITSSGGSTYYADSVKGRFTISRDNAKNTVYLQMISLKQEDTAVYYCAARDYGRHHSYGYWGQGTQVTVSS | high polyreactivity
28 | QVQLEESGGGLVQAGGSLRLSCAASGFIFFKYAMGWYRQAPGKEREFVAAISKSGTSTYYADSVKGRFTISRDNAKNTVYLQMNSLKPEDTAVYYCAKRYLTRYKGYYYWGQGTQVTVSS | high polyreactivity
29 | QVQLVESGGGLVQAGGSLRLSCAASGRIFWGYAMGWYRQAPGKERELVAAITSGGSTYYADSVKGRFTFSRDNAKNTVYLQMNSLKPEDTAVYYCAAYYVLKLRYGHRYYYWGQGTQVTVSS | high polyreactivity
30 | QVQLVESGGGLVQAGGSLRLSCAASGIILPWNAMGWYRQAPGKERELVAAISWSGTSTYYADSVQGRFTISRDNAKNTVYLQMNSLKPEDTAVYYCAAAYWWSWRYDYWGQGTQVTVSS | low polyreactivity
31 | QVQLVESGGGLVQAGGSLRLSCAASASIFRYYAMGWYRQAPGKERELVAAISYSGGSTYYADSVKGRFTISRDNAKNTVYLQMNSLKPEDTAVYYCAVPLICVDGYAYDYWGQGTQVTVSS | low polyreactivity
32 | QVQLVESGGGLVQSGGSLRLSCAASGSTIFRYAMGWSRQAPGKERELVAAISWSGASTYYADSVKGRFTISRDNAKNPVYLHMNSQKPEDTAVYYCAARSRWYDAAGYPKYYYWGHGTQVTVSS | high polyreactivity
33 | QVQLVESGGGIVQAGCSLRLSSAASGFTFYGYAMGWYRQAPGKERELVAAMSWDGSSTYYADSVKGRFTISRDNAKNTVYLPMNSLKPEDTAVYYCAREYYYGYYYPIQSDYWGQGTQVTVSS | low polyreactivity
34 | QVKLVESGGGKVQAGGSLRLSCAASGYTFDPNAIGWYRQEPGKERELVAAISRIGGSTYYADSVKGRFTISRDNAKTTLYVQMNSLKPEDTAVYYCAVDWYLTGHWADDYWGQGTQVTVSS | low polyreactivity
35 | QVQLVESGGGLVQAGGSLRLSCAASGSTFGGYAMGWYRQAPGKEREFVAAITKRGGRTYYADSVKGRFTISRDNAKNTVYLQMNSLKPEDTAVYYCATRGINYAEYDYWGQGTQVTVSS | high polyreactivity
36 | QVQIVESGGGLVQAGGSLRLSCAASGSIFVWYAMGWYRQAPGKERELVARITSGGRTNYADSVKGRFTISRDNAKNTVYLQMNSLKPEDTAVYYCAAGRVSWSPYYYWGQGTQVTVSS | high polyreactivity
37 | QVQLVESGGGLVQAGGSLRLSCAASGFTFKYYAMGWYRQAPGKERELVAAISRRGTSTYYADSVKGRFTISRYNAKNTVYLQMNCLKPEDTAVYYCSACAYGTYSVYWINEYDYWGQGTQVTVSS | high polyreactivity
38 | QVQLVESGGGLVQAGGSLRLSCAASGSTLNSYVMGWYRQAPGKERELVATIRSGSSTNYADSVKGRFTISRDNAKNTVYLQMNSLKPEDTAVYDCAADAYSLCYDSWGQGTQVTVSS | low polyreactivity
39 | QVQLVESGGGIVQAGGSLRLSSAASGRIFRYYAMGWYRQAPGKERQLVAAISGSGGITYYADSVKGRFTISRDNAKNTVYLQLNRLKPEDTAVYYCAARYGIRPSVSGGYWGQGTQVTVSS | high polyreactivity
40 | QVQLQESGGGLVQAGGSLRLSCAASGSISRYYDMGLYRQAPGKEREFVAGISGGAITYYADSVKGRFTISRDNAKNTVYLQMNSLKPVDTAVYYCAADTGVYQYHSYWGQGTQVTVSS | low polyreactivity
41 | QVQLVESGGGLVQAGGSLRLSCSASRSTFYGNAMGWYRQAPGKERELVAAISSGDITYYADSVKGRFTISRDNAKNTVYLQMNSLKPEDTAVYYCATDYGYSWYDYWGQGTQVTVSS | low polyreactivity
42 | QVQLVESAGGLVQAGGSLRLSCPASGRTSVINAMGWYRQSPGKERELVAAISSDGITNYADSVKGRFTISRDNAKNTVYLQMISLKPEDTAVYYCAAEWYYVYIAPYDYWGQGTQVTVSS | low polyreactivity
43 | QVQLVESGGGLVQAGGSLRLSCAASGRIFGGYAMGWYRQAPGKEWEVVAAIRDSGRTYYADSVKGRFTISRDNAKNTVYLQMNSLKPEDTAVYYCAADAHSSYSPFRWYDYWGQGTQVTVSS | low polyreactivity

From the nanobody polyreactivity screen of Harvey et al. (2022)
